The target in test [1] is T1, recombinant fibronectin domain ED-B (His)6 (human, UniProt P02751 1266-1356).
T1 construct: domain: ED-B; Produced by standard procedures; immobilised on ELISA plates or on the BIAcore chip; also called recombinant ED-B; human ED-B
Description: SPR (BIAcore), ED-B immobilised on chip, Fab in flow. As to the method:
(§1) F1-Chips (Biacore, Sweden) were coated with about 200 RU of ED-B (30 μg/ml, 10 mmol of acetate buffer, pH 4.0) and reference flow cells with a corresponding amount of human serum albumin (20 μg/ml, 10 mmol of acetate buffer, pH 4.5) with use of standard EDC-NHS-amine-coupling chemistry. The antigen density was reduced to about 100 RU for the Fab characterization of the second maturation. The regeneration was carried out with 10 mmol of HCl. All kinetic measurements were carried out in PBS buffer (136 mmol of NaCl, 2.7 mmol of KCl, 10 mmol of Na₂HPO₄, 1.76 mmol of KH₂PO₄, pH 7.4) with a flow rate of 20 μl/minute with use of a Fab concentration range of 1.5-500 nmol. The injection period was 1 minute in each case. All sensograms were evaluated with use of BIA evaluation software 3.1.
The properties of twelve selected binding molecules was determined by BIAcore analysis (see Table 1). […] At least two independent measurements with Fab molecules from different batches were performed for protein expression and protein purification. The binding rate (Kₒₙ) and the dissociating-off rate (Koff) of the Fab molecule are indicated in separate columns.

The target of test [2] is T2, recombinant fibronectin domain 7-8-9 (without ED-B) (UniProt P02751-1 1173-1446, limits assumed).
T2 construct: domain: fibronectin domains 7-8-9 (without ED-B)
The experiment in a line: specificity ELISA on immobilised recombinant domain 7-8-9.

Test [3] addresses T3, recombinant fibronectin domain 6 (UniProt P02751 1086-1172, limits assumed).
T3 construct: domain: fibronectin domain 6; also called 6FN; 6-FN
The experiment in a line: specificity ELISA on immobilised recombinant fibronectin domain 6.

Test [4] concerns the target T1, recombinant fibronectin domain ED-B …. The experiment in a line: SPR (BIAcore), ED-B immobilised on chip, Fab in flow. The method, then: as §1
This is another data set of the same source.

The target in test [5] is T2, recombinant fibronectin domain 7-8-9 …. The experiment in a line: specificity ELISA on immobilised recombinant domain 7-8-9. This is another data set of the same source.
The target in test [6] is T1, recombinant fibronectin domain ED-B …. Description: SPR (BIAcore), ED-B immobilised on chip (about 100 RU), Fab in flow. As to the method:
as §1

For test [7], the target named is T3, recombinant fibronectin domain 6. The experiment in a line: specificity ELISA on immobilised recombinant fibronectin domain 6. The source holds these as a separate data set.
The target of test [8] is T1, recombinant fibronectin domain ED-B …. Description: SPR (BIAcore); ratio to parent clone MOR02619. The method, then:
as §1

Read-outs that look alike come from different tables or passages of the source.

B1: MOR02610 (Fab, V domains shown)
VH: QVQLVQSGAEVKKPGASVKVSCKASGYTFTGFYINWVRQAPGQGLEWMGWINPYSGNTRYAQKFQGRVTMTRDTSISTAYMELSSLRSEDTAVYYCARSPVYYKYDYWGQGTLVTVSS
VL: DIVLTQPPSVSGAPGQRVTISCSGSSGNIGINFVNWYQQLPGTAPKLLIYKNNKRPSGVPDRFSGSKSGTSASLAITGLQSEDEADYYCQSYDKTSSTYVFGGGTKLTVLG
notes: HuCAL GOLD Fab, VH1B/L1
Consider B1, for which, in test [1], the Kd worked out at 75 nM, the koff worked out at 0.091 s⁻¹ and the kon came out at 1.3e+06 M⁻¹ s⁻¹. For the same molecule, the binding result in test [2] is recorded as “no binding”. Besides, in test [3], the binding result is “no binding”.

B2: MOR02715 (Fab, V domains shown)
VH: QVQLVESGGGLVQPGGSLRLSCAASGFTFSSYGMHWVRQAPGKGLEWVSVISSSGSYIYYADSVKGRFTISRDNSKNTLYLQMNSLRAEDTAVYYCARNKVGFDVWGQGTLVTVSS
VL: DIALTQPASVSGSPGQSITISCTGTSSDGGGYNTVSWYQQHPGKAPKLMIYYVHKRPSGVSNRFSGSKSGNTASLTISGLQAEDEADYYCQAWDNQGMKYVFGGGTKLTVLG
notes: HuCAL GOLD Fab, VH3/L2
Take B2: in test [1], the Kd was 53.7 nM, the dissociation rate constant (koff) was found to be 0.047 s⁻¹ and the kon worked out at 890000 M⁻¹ s⁻¹. Besides, in test [4], the Kd worked out at 53.7 nM, the koff worked out at 0.047 s⁻¹ and the kon amounted to 990000 M⁻¹ s⁻¹. Besides, the binding result in test [2] is given as “no binding”. In addition, in test [3], the binding result is listed as “no binding”.

B3: MOR03255 (Fab, V domains shown)
VH: QVQLVESGGGLVQPGGSLRLSCAASGFTFSSYGMHWVRQAPGKGLEWVSVISNRSSYIYYADSVKGRFTISRDNSKNTLYLQMNSLRAEDTAVYYCARNKVGFDVWGQGTLVTVSS
VL: DIALTQPASVSGSPGQSITISCTGTSSDGGGYNTVSWYQQHPGKAPKLMIYYVHKRPSGVSNRFSGSKSGNTASLTISGLQAEDEADYYCQSWDLSVHQVVFGGGTKLTVLG
notes: Fab, H-CDR2 derivative of MOR03062
With B3, the binding result in test [5] is “no binding”. In test [6], the Kd is 0.03 nM, the koff came out at 8.6e-05 s⁻¹ and the on-rate constant (kon) stood at 4.9e+06 M⁻¹ s⁻¹. Further, the binding result in test [7] is listed as “no binding”.

B4: MOR03257 (Fab, V domains shown)
VH: QVQLVESGGGLVQPGGSLRLSCAASGFTFSSYGMHWVRQAPGKGLEWVSVISNRGNYIYYADSVKGRFTISRDNSKNTLYLQMNSLRAEDTAVYYCARNKVGFDVWGQGTLVTVSS
VL: DIALTQPASVSGSPGQSITISCTGTSSDGGGYNTVSWYQQHPGKAPKLMIYYVHKRPSGVSNRFSGSKSGNTASLTISGLQAEDEADYYCQSWDLSVHQVVFGGGTKLTVLG
notes: as for B3
For B4, the binding result in test [5] was “no binding”. Further, in test [6], the Kd was determined as 0.08 nM, the koff is 0.0003 s⁻¹ and the association rate constant (kon) is 5.3e+06 M⁻¹ s⁻¹. In test [7], the binding result was “no binding”.

B5: MOR03252 (Fab, V domains shown)
VH: QVQLVESGGGLVQPGGSLRLSCAASGFTFSSYGMHWVRQAPGKGLEWVSVISNYSWHIYYADSVKGRFTISRDNSKNTLYLQMNSLRAEDTAVYYCARNKVGFDVWGQGTLVTVSS
VL: DIALTQPASVSGSPGQSITISCTGTSSDGGGYNTVSWYQQHPGKAPKLMIYYVHKRPSGVSNRFSGSKSGNTASLTISGLQAEDEADYYCQSWDLSVHQVVFGGGTKLTVLG
notes: as for B3
Regarding B5, the binding result in test [5] is “no binding”. Further, in test [6], the Kd came to 0.03 nM, the dissociation rate constant (koff) is 6.1e-05 s⁻¹ and the kon was 3.1e+06 M⁻¹ s⁻¹. The binding result in test [7] is “no binding”.

B6: MOR02619 (Fab, V domains shown)
VH: QVQLQESGPGLVKPGETLSLTCTVSGGSISSYYWSWIRQAPGKGLEWIGIGHWGSTQYNPSLKGRVTISVDTSKNQFSLKLSSVTAEDTAVYYCARFFDVWGQGTLVTVSS
VL: DIVLTQPPSVSGAPGQRVTISCSGSSSNIGSNTVRWYQQLPGTAPKLLIYSNNKRPSGVPDRFSGSKSGTSASLAITGLQSEDEADYYCQSWDGASTGVFGGGTKLTVLG
notes: HuCAL GOLD Fab, VH4/L1
Take B6: in test [1], the Kd amounted to 15.4 nM, the koff worked out at 0.012 s⁻¹ and the kon amounted to 780000 M⁻¹ s⁻¹. In addition, in test [4], the Kd came to 15.4 nM, the koff was 0.012 s⁻¹ and the kon turned out to be 780000 M⁻¹ s⁻¹. In test [2], the binding result is “no binding”. Besides, the binding result in test [3] is “no binding”.

B7: MOR03069 (Fab, V domains shown)
VH: QVQLQESGPGLVKPGETLSLTCTVSGGSISSYYWSWIRQAPGKGLEWIGIGHWGSTQYNPSLKGRVTISVDTSKNQFSLKLSSVTAEDTAVYYCARFFDVWGQGTLVTVSS
VL: DIVLTQPPSVSGAPGQRVTISCSGSSSNIGSNTVRWYQQLPGTAPKLLIYSNNKRPSGVPDRFSGSKSGTSASLAITGLQSEDEADYYCWTGMSYHFVFGGGTKLTVLG
notes: Fab, L-CDR3 derivative of MOR02619
For B7, in test [8], the “x-Fold Improvement Relative to the Parent Clone, KD” value turned out to be 4.8 fold; the “x-Fold Improvement Relative to the Parent Clone, Koff” value is 3.2 fold; the “x-Fold Improvement Relative to the Parent Clone, Kon” value worked out at 1.5 fold. In addition, in test [4], the Kd worked out at 3.3 nM, the dissociation rate constant (koff) amounted to 0.0041 s⁻¹ and the kon was 1.2e+06 M⁻¹ s⁻¹.

B8: MOR03055 (Fab, V domains shown)
VH: QVQLQESGPGLVKPGETLSLTCTVSGGSISSYYWSWIRQAPGKGLEWIGIGHWGSTQYNPSLKGRVTISVDTSKNQFSLKLSSVTAEDTAVYYCARFFDVWGQGTLVTVSS
VL: DIVLTQPPSVSGAPGQRVTISCSGSSSNIGSNTVRWYQQLPGTAPKLLIYSNNKRPSGVPDRFSGSKSGTSASLAITGLQSEDEADYYCQAWTRAHRYPVFGGGTKLTVLG
notes: as for B7
For the molecule B8, in test [8], the “x-Fold Improvement Relative to the Parent Clone, KD” value stood at 5.4 fold; the “x-Fold Improvement Relative to the Parent Clone, Koff” value came out at 2.6 fold; the “x-Fold Improvement Relative to the Parent Clone, Kon” value turned out to be 2.2 fold. Also, in test [4], the dissociation constant (Kd) was found to be 3 nM, the koff turned out to be 0.0051 s⁻¹ and the kon turned out to be 1.8e+06 M⁻¹ s⁻¹.

B9: MOR02622 (Fab, V domains shown)
VH: QVQLVESGGGLVQPGGSLRLSCAASGFTFSNYAMTWVRQAPGKGLEWVSGISYKSSSTYYADSVKGRFTISRDNSKNTLYLQMNSLRAEDTAVYYCARGLVTFDNWGQGTLVTVSS
VL: DIALTQPASVSGSPGQSITISCTGTSSDGGTYNFVSWYQQHPGKAPKLMIYRVSNRPSGVSNRFSGSKSGNTASLTISGLQAEDEADYYCSSWTHSFTDYVFGGGTKLTVLG
notes: HuCAL GOLD Fab, VH3/L2
Turning to B9, in test [1], the Kd was 21.3 nM, the off-rate constant (koff) was determined as 0.0051 s⁻¹ and the kon is 240000 M⁻¹ s⁻¹. In test [2], the binding result was “no binding”. In addition, the binding result in test [3] is “no binding”.

B10: MOR02618 (Fab, V domains shown)
VH: QVQLVESGGGLVQPGGSLRLSCAASGFTFNNYGMTWVRQAPGKGLEWVSSIYGYGSNTYYADSVKGRFTISRDNSKNTLYLQMNSLRAEDTAVYYCARNYWVFAYWGQGTLVTVSS
VL: DIELTQPPSVSVAPGQTARISCSGDNIPGKSVHWYQQKPGQAPVLVIYGKMNRPSGIPERFSGSNSGNTATLTISGTQAEDEADYYCQSYDNFNDSVVFGGGTKLTVLG
notes: HuCAL GOLD Fab, VH3/L3
Take B10: in test [1], the Kd was found to be 477 nM, the koff was found to be 0.2 s⁻¹ and the kon turned out to be 430000 M⁻¹ s⁻¹. The binding result in test [2] is “no binding”. In test [3], the binding result is recorded as “no binding”.

B11: MOR02722 (Fab, V domains shown)
VH: QVQLVESGGGLVQPGGSLRLSCAASGFTFSSNAIHWVRQAPGKGLEWVSSISGSGSNTYYADSVKGRFTISRDNSKNTLYLQMNSLRAEDTAVYYCARFIASWGQGTLVTVSS
VL: DIVMTQSPLSLPVTPGEPASISCRSSQSLVHSNGYTDLNWYLQKPGQSPQLLIYLGSYRASGVPDRFSGSGSGTDFTLKISRVEAEDVGVYYCQQYSNFPFTFGQGTKVEIKR
notes: HuCAL GOLD Fab, VH3/K2
Take B11: in test [1], the Kd is 94 nM, the koff worked out at 0.014 s⁻¹ and the kon worked out at 150000 M⁻¹ s⁻¹. The binding result in test [2] is “no binding”. Further, in test [3], the binding result is on record as “no binding”.

B12: MOR02614 (Fab, V domains shown)
VH: QVQLVESGGGLVQPGGSLRLSCAASGFTFNNNWMHWVRQAPGKGLEWVSFISGSGSHTYYADSVKGRFTISRDNSKNTLYLQMNSLRAEDTAVYYCARAYDVWGQGTLVTVSS
VL: DIVLTQPPSVSGAPGQRVTISCSGSSSNIGFNYVNWYQQLPGTAPKLLIYGNSKRPSGVPDRFSGSKSGTSASLAITGLQSEDEADYYCAMFSPEGVFGGGTKLTVLG
notes: HuCAL GOLD Fab, VH3/L1
B12: in test [1], the Kd is 160 nM, the off-rate (koff) amounted to 0.042 s⁻¹ and the kon was determined as 280000 M⁻¹ s⁻¹. Further, the binding result in test [2] is given as “no binding”. Moreover, the binding result in test [3] is listed as “no binding”.

These data come from patent US20060115428A1 (MorphoSys, published 2006).
